Laboratory results published in patent US20210388087A1 (Chugai, published 2021).

B1: H183/L072 VL K50E (antibody, name in Kabat numbering, V domains shown)
VH: QVQLVESGGGLVQPGRSLRLSCAASGFTFSNAWMHWVRQAPGKGLEWVAQIKDKGNAYAAYYAPSVKGRFTISRDDSKNSIYLQMNSLKTEDTAVYYCHYVHYASASTVLPAFGVDAWGQGTTVTVSS
VL: DIVMTQSPLSLPVTPGEPASISCQASQELVHMNRNTYLHWYQQKPGQAPRLLIYEVSNRFPGVPDRFSGSGSGTDFTLKISRVEAEDVGVYYCAQGTSVPFTFGQGTKLEIK
B2: H183/L072 VL K50H (antibody, name in Kabat numbering, V domains shown)
VH: QVQLVESGGGLVQPGRSLRLSCAASGFTFSNAWMHWVRQAPGKGLEWVAQIKDKGNAYAAYYAPSVKGRFTISRDDSKNSIYLQMNSLKTEDTAVYYCHYVHYASASTVLPAFGVDAWGQGTTVTVSS
VL: DIVMTQSPLSLPVTPGEPASISCQASQELVHMNRNTYLHWYQQKPGQAPRLLIYHVSNRFPGVPDRFSGSGSGTDFTLKISRVEAEDVGVYYCAQGTSVPFTFGQGTKLEIK
B3: H183/L072 VL K50T (antibody, name in Kabat numbering, V domains shown)
VH: QVQLVESGGGLVQPGRSLRLSCAASGFTFSNAWMHWVRQAPGKGLEWVAQIKDKGNAYAAYYAPSVKGRFTISRDDSKNSIYLQMNSLKTEDTAVYYCHYVHYASASTVLPAFGVDAWGQGTTVTVSS
VL: DIVMTQSPLSLPVTPGEPASISCQASQELVHMNRNTYLHWYQQKPGQAPRLLIYTVSNRFPGVPDRFSGSGSGTDFTLKISRVEAEDVGVYYCAQGTSVPFTFGQGTKLEIK
B4: H183/L072 VL L27bD (antibody, name in Kabat numbering, V domains shown)
VH: QVQLVESGGGLVQPGRSLRLSCAASGFTFSNAWMHWVRQAPGKGLEWVAQIKDKGNAYAAYYAPSVKGRFTISRDDSKNSIYLQMNSLKTEDTAVYYCHYVHYASASTVLPAFGVDAWGQGTTVTVSS
VL: DIVMTQSPLSLPVTPGEPASISCQASQEDVHMNRNTYLHWYQQKPGQAPRLLIYKVSNRFPGVPDRFSGSGSGTDFTLKISRVEAEDVGVYYCAQGTSVPFTFGQGTKLEIK
B5: H183/L072 VL L27bF (antibody, name in Kabat numbering, V domains shown)
VH: QVQLVESGGGLVQPGRSLRLSCAASGFTFSNAWMHWVRQAPGKGLEWVAQIKDKGNAYAAYYAPSVKGRFTISRDDSKNSIYLQMNSLKTEDTAVYYCHYVHYASASTVLPAFGVDAWGQGTTVTVSS
VL: DIVMTQSPLSLPVTPGEPASISCQASQEFVHMNRNTYLHWYQQKPGQAPRLLIYKVSNRFPGVPDRFSGSGSGTDFTLKISRVEAEDVGVYYCAQGTSVPFTFGQGTKLEIK
B6: H183/L072 VL L33A (antibody, name in Kabat numbering, V domains shown)
VH: QVQLVESGGGLVQPGRSLRLSCAASGFTFSNAWMHWVRQAPGKGLEWVAQIKDKGNAYAAYYAPSVKGRFTISRDDSKNSIYLQMNSLKTEDTAVYYCHYVHYASASTVLPAFGVDAWGQGTTVTVSS
VL: DIVMTQSPLSLPVTPGEPASISCQASQELVHMNRNTYAHWYQQKPGQAPRLLIYKVSNRFPGVPDRFSGSGSGTDFTLKISRVEAEDVGVYYCAQGTSVPFTFGQGTKLEIK
B7: H183/L072 VL L27bP (antibody, name in Kabat numbering, V domains shown)
VH: QVQLVESGGGLVQPGRSLRLSCAASGFTFSNAWMHWVRQAPGKGLEWVAQIKDKGNAYAAYYAPSVKGRFTISRDDSKNSIYLQMNSLKTEDTAVYYCHYVHYASASTVLPAFGVDAWGQGTTVTVSS
VL: DIVMTQSPLSLPVTPGEPASISCQASQEPVHMNRNTYLHWYQQKPGQAPRLLIYKVSNRFPGVPDRFSGSGSGTDFTLKISRVEAEDVGVYYCAQGTSVPFTFGQGTKLEIK
B8: H183/L072 VL L27bQ (antibody, name in Kabat numbering, V domains shown)
VH: QVQLVESGGGLVQPGRSLRLSCAASGFTFSNAWMHWVRQAPGKGLEWVAQIKDKGNAYAAYYAPSVKGRFTISRDDSKNSIYLQMNSLKTEDTAVYYCHYVHYASASTVLPAFGVDAWGQGTTVTVSS
VL: DIVMTQSPLSLPVTPGEPASISCQASQEQVHMNRNTYLHWYQQKPGQAPRLLIYKVSNRFPGVPDRFSGSGSGTDFTLKISRVEAEDVGVYYCAQGTSVPFTFGQGTKLEIK
B9: H183/L072 VL L27bK (antibody, name in Kabat numbering, V domains shown)
VH: QVQLVESGGGLVQPGRSLRLSCAASGFTFSNAWMHWVRQAPGKGLEWVAQIKDKGNAYAAYYAPSVKGRFTISRDDSKNSIYLQMNSLKTEDTAVYYCHYVHYASASTVLPAFGVDAWGQGTTVTVSS
VL: DIVMTQSPLSLPVTPGEPASISCQASQEKVHMNRNTYLHWYQQKPGQAPRLLIYKVSNRFPGVPDRFSGSGSGTDFTLKISRVEAEDVGVYYCAQGTSVPFTFGQGTKLEIK
B10: H183/L072 VL L27bT (antibody, name in Kabat numbering, V domains shown)
VH: QVQLVESGGGLVQPGRSLRLSCAASGFTFSNAWMHWVRQAPGKGLEWVAQIKDKGNAYAAYYAPSVKGRFTISRDDSKNSIYLQMNSLKTEDTAVYYCHYVHYASASTVLPAFGVDAWGQGTTVTVSS
VL: DIVMTQSPLSLPVTPGEPASISCQASQETVHMNRNTYLHWYQQKPGQAPRLLIYKVSNRFPGVPDRFSGSGSGTDFTLKISRVEAEDVGVYYCAQGTSVPFTFGQGTKLEIK
B11: H183/L072 VL L27bA (antibody, name in Kabat numbering, V domains shown)
VH: QVQLVESGGGLVQPGRSLRLSCAASGFTFSNAWMHWVRQAPGKGLEWVAQIKDKGNAYAAYYAPSVKGRFTISRDDSKNSIYLQMNSLKTEDTAVYYCHYVHYASASTVLPAFGVDAWGQGTTVTVSS
VL: DIVMTQSPLSLPVTPGEPASISCQASQEAVHMNRNTYLHWYQQKPGQAPRLLIYKVSNRFPGVPDRFSGSGSGTDFTLKISRVEAEDVGVYYCAQGTSVPFTFGQGTKLEIK
B12: H183/L072 VL L27bE (antibody, name in Kabat numbering, V domains shown)
VH: QVQLVESGGGLVQPGRSLRLSCAASGFTFSNAWMHWVRQAPGKGLEWVAQIKDKGNAYAAYYAPSVKGRFTISRDDSKNSIYLQMNSLKTEDTAVYYCHYVHYASASTVLPAFGVDAWGQGTTVTVSS
VL: DIVMTQSPLSLPVTPGEPASISCQASQEEVHMNRNTYLHWYQQKPGQAPRLLIYKVSNRFPGVPDRFSGSGSGTDFTLKISRVEAEDVGVYYCAQGTSVPFTFGQGTKLEIK
B13: H183/L072 VL K50R (antibody, name in Kabat numbering, V domains shown)
VH: QVQLVESGGGLVQPGRSLRLSCAASGFTFSNAWMHWVRQAPGKGLEWVAQIKDKGNAYAAYYAPSVKGRFTISRDDSKNSIYLQMNSLKTEDTAVYYCHYVHYASASTVLPAFGVDAWGQGTTVTVSS
VL: DIVMTQSPLSLPVTPGEPASISCQASQELVHMNRNTYLHWYQQKPGQAPRLLIYRVSNRFPGVPDRFSGSGSGTDFTLKISRVEAEDVGVYYCAQGTSVPFTFGQGTKLEIK
B14: H183/L072 VL L27bM (antibody, name in Kabat numbering, V domains shown)
VH: QVQLVESGGGLVQPGRSLRLSCAASGFTFSNAWMHWVRQAPGKGLEWVAQIKDKGNAYAAYYAPSVKGRFTISRDDSKNSIYLQMNSLKTEDTAVYYCHYVHYASASTVLPAFGVDAWGQGTTVTVSS
VL: DIVMTQSPLSLPVTPGEPASISCQASQEMVHMNRNTYLHWYQQKPGQAPRLLIYKVSNRFPGVPDRFSGSGSGTDFTLKISRVEAEDVGVYYCAQGTSVPFTFGQGTKLEIK
B15: H183/L072 VL L27bH (antibody, name in Kabat numbering, V domains shown)
VH: QVQLVESGGGLVQPGRSLRLSCAASGFTFSNAWMHWVRQAPGKGLEWVAQIKDKGNAYAAYYAPSVKGRFTISRDDSKNSIYLQMNSLKTEDTAVYYCHYVHYASASTVLPAFGVDAWGQGTTVTVSS
VL: DIVMTQSPLSLPVTPGEPASISCQASQEHVHMNRNTYLHWYQQKPGQAPRLLIYKVSNRFPGVPDRFSGSGSGTDFTLKISRVEAEDVGVYYCAQGTSVPFTFGQGTKLEIK
B16: H183/L072 VL L27bI (antibody, name in Kabat numbering, V domains shown)
VH: QVQLVESGGGLVQPGRSLRLSCAASGFTFSNAWMHWVRQAPGKGLEWVAQIKDKGNAYAAYYAPSVKGRFTISRDDSKNSIYLQMNSLKTEDTAVYYCHYVHYASASTVLPAFGVDAWGQGTTVTVSS
VL: DIVMTQSPLSLPVTPGEPASISCQASQEIVHMNRNTYLHWYQQKPGQAPRLLIYKVSNRFPGVPDRFSGSGSGTDFTLKISRVEAEDVGVYYCAQGTSVPFTFGQGTKLEIK
B17: H183/L072 VL K50S (antibody, name in Kabat numbering, V domains shown)
VH: QVQLVESGGGLVQPGRSLRLSCAASGFTFSNAWMHWVRQAPGKGLEWVAQIKDKGNAYAAYYAPSVKGRFTISRDDSKNSIYLQMNSLKTEDTAVYYCHYVHYASASTVLPAFGVDAWGQGTTVTVSS
VL: DIVMTQSPLSLPVTPGEPASISCQASQELVHMNRNTYLHWYQQKPGQAPRLLIYSVSNRFPGVPDRFSGSGSGTDFTLKISRVEAEDVGVYYCAQGTSVPFTFGQGTKLEIK
B18: H183/L072 VL L27bN (antibody, name in Kabat numbering, V domains shown)
VH: QVQLVESGGGLVQPGRSLRLSCAASGFTFSNAWMHWVRQAPGKGLEWVAQIKDKGNAYAAYYAPSVKGRFTISRDDSKNSIYLQMNSLKTEDTAVYYCHYVHYASASTVLPAFGVDAWGQGTTVTVSS
VL: DIVMTQSPLSLPVTPGEPASISCQASQENVHMNRNTYLHWYQQKPGQAPRLLIYKVSNRFPGVPDRFSGSGSGTDFTLKISRVEAEDVGVYYCAQGTSVPFTFGQGTKLEIK
B19: H183/L072 VL L27bS (antibody, name in Kabat numbering, V domains shown)
VH: QVQLVESGGGLVQPGRSLRLSCAASGFTFSNAWMHWVRQAPGKGLEWVAQIKDKGNAYAAYYAPSVKGRFTISRDDSKNSIYLQMNSLKTEDTAVYYCHYVHYASASTVLPAFGVDAWGQGTTVTVSS
VL: DIVMTQSPLSLPVTPGEPASISCQASQESVHMNRNTYLHWYQQKPGQAPRLLIYKVSNRFPGVPDRFSGSGSGTDFTLKISRVEAEDVGVYYCAQGTSVPFTFGQGTKLEIK
B20: H183/L072 VL L27bV (antibody, name in Kabat numbering, V domains shown)
VH: QVQLVESGGGLVQPGRSLRLSCAASGFTFSNAWMHWVRQAPGKGLEWVAQIKDKGNAYAAYYAPSVKGRFTISRDDSKNSIYLQMNSLKTEDTAVYYCHYVHYASASTVLPAFGVDAWGQGTTVTVSS
VL: DIVMTQSPLSLPVTPGEPASISCQASQEVVHMNRNTYLHWYQQKPGQAPRLLIYKVSNRFPGVPDRFSGSGSGTDFTLKISRVEAEDVGVYYCAQGTSVPFTFGQGTKLEIK

Molecular target: T1, Human CD3eg linker (human)
T1 construct: Single-chain construct; also called recombinant human CD3
T1 chain: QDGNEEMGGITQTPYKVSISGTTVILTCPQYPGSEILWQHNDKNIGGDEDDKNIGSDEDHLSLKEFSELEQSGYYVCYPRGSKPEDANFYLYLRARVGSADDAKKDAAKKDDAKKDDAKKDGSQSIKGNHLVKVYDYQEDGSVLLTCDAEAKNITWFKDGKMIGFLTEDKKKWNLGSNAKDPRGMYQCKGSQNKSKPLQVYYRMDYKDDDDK
Assay: SPR; fold vs parent H183/L072
In the case of B1, the “fold change of affinity” value is reported as 0 fold. In the case of B2, the “fold change of affinity” value is reported as 0 fold. In the case of B3, the “fold change of affinity” value is reported as 0 fold. In the case of B4, the “fold change of affinity” value is reported as 0 fold. In the case of B5, the “fold change of affinity” value is reported as 0.3 fold. In the case of B6, the “fold change of affinity” value is reported as 0.6 fold. In the case of B7, the “fold change of affinity” value is reported as 1.8 fold. With B8 the “fold change of affinity” value was 0 fold. For B9, the “fold change of affinity” value was 0 fold. For B10, the “fold change of affinity” value was 0.6 fold. In the case of B11, the “fold change of affinity” value is reported as 0.7 fold. For B12, the “fold change of affinity” value was 0 fold. With B13 the “fold change of affinity” value was 0 fold. B14 was tested, and the “fold change of affinity” value was 0.7 fold. With B15 the “fold change of affinity” value was 0 fold. In the case of B16, the “fold change of affinity” value is reported as 0.5 fold. With B17 the “fold change of affinity” value was 0 fold. In the case of B18, the “fold change of affinity” value is reported as 0 fold. With B19 the “fold change of affinity” value was 0 fold. B20 was tested, and the “fold change of affinity” value was 1.7 fold.
